Measurements from patent publication US20240368295A1 (SUTRO BIOPHARMA, published 2024).

T1: BCMA on BCMA-positive NCI-H929, ARP-1 and U266B1 cells (human, UniProt Q02223 1-184)
T1 sequence: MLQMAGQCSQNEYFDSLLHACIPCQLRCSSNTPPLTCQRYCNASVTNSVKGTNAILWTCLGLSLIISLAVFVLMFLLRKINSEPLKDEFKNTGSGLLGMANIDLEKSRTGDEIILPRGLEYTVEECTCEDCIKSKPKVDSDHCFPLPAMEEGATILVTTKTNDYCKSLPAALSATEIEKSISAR


Legend:
[1] = target: T2, rat BCMA on 293T-ratBCMA cells (rat); assay: FACS, 293T-ratBCMA cells
T2 construct: whole, on cells

[2] = target: cynomolgus BCMA on 293T-cynoBCMA cells (cynomolgus, UniProt Q02223 1-184 (human entry)); assay: FACS, 293T-cynoBCMA cells
cynomolgus BCMA on 293T-cynoBCMA cells, sequence (Q02223 other isoform, or with tags, fused parts or gaps): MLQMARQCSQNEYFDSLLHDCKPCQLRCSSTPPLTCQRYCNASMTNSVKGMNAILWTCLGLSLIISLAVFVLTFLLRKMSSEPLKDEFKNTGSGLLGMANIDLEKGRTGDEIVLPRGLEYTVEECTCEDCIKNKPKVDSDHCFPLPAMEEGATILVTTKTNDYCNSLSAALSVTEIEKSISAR
Procedure: (§1) Variants for which sufficient protein was purified in secondary screening were tested in a fluorescence-activated cell sorting (FACS) cell-binding assay. […] 6-12 point dilutions of anti-BCMA variants starting from concentrations of about 100-200 nM antibody were dispensed into each well using a BioMekFX (Beckman Coulter). Cells were then incubated on ice for 1 hr, washed with FACS buffer and incubated for 1 hr on ice with […] FACS buffer containing […] Alexa647-conjugated Goat Anti-Human IgG dispensed using BioMekFX (Beckman Coulter). Cells were then washed 2× with FACS buffer and fixed for 10 minutes in […] PBS with 2% PFA prior to fluorescence detection. Samples were acquired using a Beckton Dickinson LSRII FACS. Geometric Mean Fluorescence Intensity of BCMA antibody binding was analyzed using FlowJo® software (Trec Star, Inc.).

[3] = target: T1, BCMA on BCMA-positive NCI-H929, ARP-1 …; assay: cell-based or functional assay
[4] = target: T1, BCMA on BCMA-positive NCI-H929, ARP-1 …; assay: FACS, NCI-H929 cells
Procedure: as §1

[5] = target: T1, BCMA on BCMA-positive NCI-H929, ARP-1 …; assay: cell-based or functional assay; remark: listed apart in the source

| Binder | Bmax (MFI) [1] [MFI] | Bmax (MFI) [2] [MFI] | ARP-1, SC239-conjugated 2° antibody cell killing, EC50 [3] [nM] | ARP-1, SC239-conjugated 2° antibody cell killing, Span [3] [%] | U266B1, SC239-conjugated 2° antibody cell killing, EC50 [3] [nM] | U266B1, SC239-conjugated 2° antibody cell killing, Span [3] [%] | Bmax (MFI) [4] [MFI] | U266B1, SC225-conjugated 2° antibody cell killing, EC50 [5] [nM] | U266B1, SC225-conjugated 2° antibody cell killing, Span [5] [%] |
| --- | --- | --- | --- | --- | --- | --- | --- | --- | --- |
| 9E12 (antibody, V domains shown, chicken HybriFree-derived antibody; also called Antibody 43) VH: AVTLDESGGGLQTPGGGLSLVCKASGFTFSDYGLGWMRQAPGKGLEYVARINSAGSGTYYGSAVDGRATISRDNGQSTVRLQLNNLRAEDTGTYYCTRGGGGASIDGWGHGTEVIVSS VL: ALTQPSSVSANPGETVKITCSGGGSYYGSYYYGWYQQKSPGSAPVTLIYNNNNRPSDIPSRFSGSTSGSTGTLTITGVRAEDEAVYYCGSFDSSTDAIFGAGTTLTVL | 4690 | 13200 | 1.2 | 80 | 1.4 | 47 | 8140 | – | – |
| 9H1 (antibody, V domains shown, chicken HybriFree-derived antibody; also called Antibody 44) VH: AVTLDESGGGLQTPGGALSLVCKGSGFTFSDYGMGWMRQAPGKGLQYVARINSAGSDTNYGSAVKGRATISRDDGQSTVRLQLSSLRAEDTGIYYCTRGGGGASIDGWGHGTEVIVSS VL: ALTQPSSVSANPGETVKITCSGGGSYYGSYYYGWYQQKSPGSAPVTLIYNNNNRPSDIPSRFSGSTSGSTGTLTITGVRAEDEAVYYCGSFDSSTDAIFGAGTTLTVL | 3450 | 11400 | 1.3 | 74 | 1.1 | 50 | 6160 | – | – |
| 10H1 (antibody, V domains shown, chicken HybriFree-derived antibody; also called Antibody 45) VH: AVTLDESGGGLQTPGGALSLVCKASGFTFSGYGMGWMRQAPGKGLEYVARINSAGSDTDYGAAVKGRATISRDNGQSTVRLQLNNLRAEDTATYFCTRGGGGASIDGWGHGTEVIVSS VL: ALTQPSSVSANPGETVKITCSGGGNYYGSYYYGWYQQKAPGSAPVTVIYNNNNRPSNIPSRFSGSKSGSTGTLTITGVQAEDEAVYFCGGFDSSSDAIFGAGTTLTVL | 4350 | 21200 | 0.86 | 88 | 0.29 | 89 | 22500 | – | – |
| 10E10 (antibody, V domains shown, chicken HybriFree-derived antibody; also called Antibody 46) VH: AVTLDESGGGLQTPGGGLSLVCKASGFTFSSYGMGWMRQAPGKGLEFVARINSGGSSYTDYGSAVKGRATISRDDGQSTVRLQLNNLRAEDTGIYYCTRGGGGASIDGWGHGTEVIVSS VL: ALTQPSSVSANPGETVKITCSGGGNYAGSYYYGWYQQKSPGSAPLTVIYNSNNRPSDIPSRFSGSLSGSTGTLTITGVRAEDEAVYFCGGFDSSTDAIFGAGTTLTVL | 906 | 4540 | 3 | 46 | 2.5 | 20 | 3440 | – | – |
| SRP2291-A04 (antibody, IgG1, V domains shown, IgG1 with trastuzumab light chain, His/FLAG-tagged, cell-free expressed; also called Antibody 28) VH: EVQLVESGGGLVQPGGSLRLSCAASGFNISSYGIHWVRQAPGKGLEWVGFISPYDGYTEYADSVKGRFTISAGTSKNTAYLQMNSLRAEDTAVYYCARDFNDRYFTYVLDYWGQGTLVTVSS VL: not shown | – | 63800 | – | – | – | – | 33900 | 49 | 0.8 |
| SRP2291-E06 (antibody, IgG1, V domains shown, IgG1 with trastuzumab light chain, His/FLAG-tagged, cell-free expressed; also called Antibody 25) VH: EVQLVESGGGLVQPGGSLRLSCAASGFNISPYTIHWVRQAPGKGLEWVAHIFPSGGYTDYADSVKGRFTISADTSKNTAYLQMNSLRAEDTAVYYCARDFYDRYATYVLDYWGQGTLVTVSS VL: not shown | – | 68300 | – | – | – | – | 34400 | 27 | 1.1 |
| SRP2288-A03 (antibody, IgG1, V domains shown, IgG1 with trastuzumab light chain, His/FLAG-tagged, cell-free expressed; also called Antibody 15) VH: EVQLVESGGGLVQPGGSLRLSCAASGFNINNSWIHWVRQAPGKGLEWVGWIYPYIGFTEYADSVKGRFTISADTSKNTAYLQMNSLRAEDTAVYYCARDYDLRYLTGVLDYWGQGTLVTVSS VL: not shown | – | 46800 | – | – | – | – | 16300 | 2.3 | 42 |
| SRP2290-A02 (antibody, IgG1, V domains shown, IgG1 with trastuzumab light chain, His/FLAG-tagged, cell-free expressed; also called Antibody 22) VH: EVQLVESGGGLVQPGGSLRLSCAASGFNISTRWIHWVRQAPGKGLEWVGVITPSAGYTHYADSVKGRFTISAGTSKNTAYLQMNSLRAEDTAVYYCARDLGSRYWVGVFDYWGQGTLVTVSS VL: not shown | – | 70300 | – | – | – | – | 33600 | 1.6 | 70 |
| SRP2290-C07 (antibody, IgG1, V domains shown, IgG1 with trastuzumab light chain, His/FLAG-tagged, cell-free expressed; also called Antibody 19) VH: EVQLVESGGGLVQPGGSLRLSCAASGFNITYDWIHWVRQAPGKGLEWVGVITPFDGYTYYADSVKGHFTISADTSKNTAYLQMNSLRAEDTAVYYCARDMGVGYWVGFSDYWGQGTLVTVSS VL: not shown | – | 78100 | – | – | – | – | – | 0.93 | 75 |
| SRP2290-C08 (antibody, IgG1, V domains shown, IgG1 with trastuzumab light chain, His/FLAG-tagged, cell-free expressed; also called Antibody 21) VH: EVQLVESGGGLVQPGGSLRLSCAASGFNIQPYWIHWVRQAPGKGLEWVGVITPPSGYTYYADSVKGRFTISADTSKNTAYLQMNSLRAEDTAVYYCARDWGVGYWVGFSDYWGQGTLVTVSS VL: not shown | – | 71000 | – | – | – | – | 37800 | 1.1 | 73 |
| SRP2290-D02 (antibody, IgG1, V domains shown, IgG1 with trastuzumab light chain, His/FLAG-tagged, cell-free expressed; also called Antibody 18) VH: EVQLVESGGGLVQPGGSLRLSCAASGFNISSYWIHWVRQAPGKGLEWMGVITPAAGYTYYADSVKGRFTISADTSKNTAYLQMNSLRAEDTAVYYCARDLGHRYWVGVFDYWGQGTLVTVSS VL: not shown | – | 75800 | – | – | – | – | 33600 | 1.4 | 60 |
| SRP2290-D05 (antibody, IgG1, V domains shown, IgG1 with trastuzumab light chain, His/FLAG-tagged, cell-free expressed; also called Antibody 20) VH: EVQLVESGGGLVQPGGSLRLSCAASGFNIASRWIHWVRQAPGKGLEWVGVITPSAGYTYYADSVKGRFTISADTSKNTAYLQMNSLRAEDTAVYYCARDLGYGYWVGFSDYWGQGTLVTVSS VL: not shown | – | 57600 | – | – | – | – | 21800 | 0.96 | 50 |
| SRP2290-G01 (antibody, IgG1, V domains shown, IgG1 with trastuzumab light chain, His/FLAG-tagged, cell-free expressed; also called Antibody 17) VH: EVQLVESGGGLVQPGGSLRLSCAASGFNISPYWIHWVRQAPGKGLEWVGVITPPSGFTYYADSVKGRFTISADTSKNTAYLQVNSLRAEDTAVYYCARDLGVGYWVGFSDYWGQGTLVTVSS VL: not shown | – | 77100 | – | – | – | – | – | 1.4 | 70 |
| SRP2291-D07 (antibody, IgG1, V domains shown, IgG1 with trastuzumab light chain, His/FLAG-tagged, cell-free expressed; also called Antibody 26) VH: EVQLVESGGGLVQPGGSLRLSCAASGFNIKDTYIHWVRQAPGKGLEWVGVISPYDGYTEYADSVKGRFTISADTSKNTAYLQMNSLRAEDTAVYYCAHDFYDRYSTYVLDYWGQGTLVTVSS VL: not shown | – | 67900 | – | – | – | – | 28700 | 16 | 2 |
| SRP2291-G05 (antibody, IgG1, V domains shown, IgG1 with trastuzumab light chain, His/FLAG-tagged, cell-free expressed; also called Antibody 24) VH: EVQLVESGGGLVQPGGSLRLSCAASGFNIAAYTIHWVRQAPGKGLEWVGWISPYGGYTEYADSVKGRFTISADTSKNTAYLQMNSLRAEDTAVYYCARDFHDRYATFVLDYWGQGTLVTVSS VL: not shown | – | 62700 | – | – | – | – | 23200 | 20 | 0.8 |
| SRP2291-F10 (antibody, IgG1, V domains shown, IgG1 with trastuzumab light chain, His/FLAG-tagged, cell-free expressed; also called Antibody 27) VH: EVQLVESGGGLVQPGGSLRLSCAASGFNIDPYTIHWVRQAPGKGLEWVGWISPYDGYTEYADSVKGRFTISADTSKNTAYLQMNSLRAEDTAVYYCARDYYDRYSTYVLDYWGRGTLVTVSS VL: not shown | – | 66500 | – | – | – | – | 33800 | 46 | 1 |
| SRP2291-A01 (antibody, IgG1, V domains shown, IgG1 with trastuzumab light chain, His/FLAG-tagged, cell-free expressed; also called Antibody 29) VH: EVQLVESGGGLVQPGGSLRLSCAASGFNIDPYTIHWARQAPGKGLEWVAHISPYDGYTDYADSVKGRFTISADTSKNTAYLQMNSLRAEDTAVYYCARDFYDRYSTYVLDYWGQGTLVTVSS VL: not shown | – | 67200 | – | – | – | – | 32500 | 58 | 1.1 |
| 11D6 (antibody, V domains shown, chicken HybriFree-derived antibody; also called Antibody 32) VH: AVTLDESGGGLQTPGGTLSLVCKASGFTFSSFNMFWVRQAPGEGLEWVAYIRNDGRSTSYGPAVKGRATISRDNGQSTVRLQLNNLRAEDTGTYFCAKTTCVGSGGCIDTWGHGTEVIVSS VL: ALTQPSSVSANPGETVEITCSGGNSDYGWFQQKSPGSAPVTVIYRNNQRPSDIPSRFSGSGSGSTNTLTITGVQAEDEAIYYCGNVDFTDDVFGAGTTLTVL | – | 27700 | 3.8 | 83 | 1.1 | 67 | 26400 | – | – |
